Source: article PMC2172161 (The Journal of Cell Biology, 2004)
Where two headings read alike, the source gives them in different places.

B1: Cdc12-His6 (natural protein)
chain: MSAATATAAPVPPPVGISNLPNQRYKIVNEEGGTFTVMLCGESGLGKTTFINTLFQTVLKRADGQQHRQEPIRKTVEIDITRALLEEKHFELRVNVIDTPGFGDNVNNNKAWQPLVDFIDDQHDSYMRQEQQPYRTKKFDLRVHAVLYFIRPTGHGLKPIDIETMKRLSTRANLIPVIAKADTLTAQELQQFKSRIRQVIEAQEIRIFTPPLDADSKEDAKSGSNPDSAAVEHARQLIEAMPFAIVGSEKKFDNGQGTQVVARKYPWGLVEIENDSHCDFRKLRALLLRTYLLDLISTTQEMHYETYRRLRLEGHENTGEGNEDFTLPAIAPARKLSHNPRYKEEENALKKYFTDQVKAEEQRFRQWEQNIVNERIRLNGDLEEIQGKVKKLEEQVKSLQVKKSHLK
B2: Cdc12(T48N)-His6 (natural protein)
chain: MSAATATAAPVPPPVGISNLPNQRYKIVNEEGGTFTVMLCGESGLGKNTFINTLFQTVLKRADGQQHRQEPIRKTVEIDITRALLEEKHFELRVNVIDTPGFGDNVNNNKAWQPLVDFIDDQHDSYMRQEQQPYRTKKFDLRVHAVLYFIRPTGHGLKPIDIETMKRLSTRANLIPVIAKADTLTAQELQQFKSRIRQVIEAQEIRIFTPPLDADSKEDAKSGSNPDSAAVEHARQLIEAMPFAIVGSEKKFDNGQGTQVVARKYPWGLVEIENDSHCDFRKLRALLLRTYLLDLISTTQEMHYETYRRLRLEGHENTGEGNEDFTLPAIAPARKLSHNPRYKEEENALKKYFTDQVKAEEQRFRQWEQNIVNERIRLNGDLEEIQGKVKKLEEQVKSLQVKKSHLK

Assays:
Experiment in all cases: pull-down
GST-Cdc11 [1] = molecular target: T1, GST-Cdc11 (S. cerevisiae, UniProt P32458 1-415)
T1 sequence: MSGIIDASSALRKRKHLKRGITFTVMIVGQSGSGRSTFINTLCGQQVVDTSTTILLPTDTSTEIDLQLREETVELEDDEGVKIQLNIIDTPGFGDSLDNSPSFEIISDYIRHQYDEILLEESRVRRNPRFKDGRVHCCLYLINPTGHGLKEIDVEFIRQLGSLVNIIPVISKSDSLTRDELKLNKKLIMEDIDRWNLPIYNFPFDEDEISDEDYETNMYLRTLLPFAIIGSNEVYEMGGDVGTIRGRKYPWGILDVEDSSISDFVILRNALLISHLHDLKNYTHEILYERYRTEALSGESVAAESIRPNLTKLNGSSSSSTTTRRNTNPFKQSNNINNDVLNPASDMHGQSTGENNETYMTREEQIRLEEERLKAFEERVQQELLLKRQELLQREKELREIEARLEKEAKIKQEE

GST-Cdc3 [2] = molecular target: T2, GST-Cdc3 (S. cerevisiae, UniProt P32457 1-520)
T2 sequence: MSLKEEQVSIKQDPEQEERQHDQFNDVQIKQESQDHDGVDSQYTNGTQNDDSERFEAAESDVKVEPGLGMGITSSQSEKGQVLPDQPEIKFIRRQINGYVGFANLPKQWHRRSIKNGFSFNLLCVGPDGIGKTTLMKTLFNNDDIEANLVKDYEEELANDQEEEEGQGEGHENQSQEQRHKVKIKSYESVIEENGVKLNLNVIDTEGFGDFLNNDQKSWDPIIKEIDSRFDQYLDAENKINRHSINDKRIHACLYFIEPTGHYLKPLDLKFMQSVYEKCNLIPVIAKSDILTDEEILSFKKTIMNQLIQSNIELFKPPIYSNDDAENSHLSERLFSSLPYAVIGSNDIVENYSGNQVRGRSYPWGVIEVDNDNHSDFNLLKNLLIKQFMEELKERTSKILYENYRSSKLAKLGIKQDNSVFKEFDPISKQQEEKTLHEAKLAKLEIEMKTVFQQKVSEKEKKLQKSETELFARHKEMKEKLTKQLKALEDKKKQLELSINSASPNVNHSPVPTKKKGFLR

GST-HSL1(833-1518) = molecular target: T3, GST-HSL1(833-1518) (S. cerevisiae, UniProt P34244 833-1518)
T3 sequence: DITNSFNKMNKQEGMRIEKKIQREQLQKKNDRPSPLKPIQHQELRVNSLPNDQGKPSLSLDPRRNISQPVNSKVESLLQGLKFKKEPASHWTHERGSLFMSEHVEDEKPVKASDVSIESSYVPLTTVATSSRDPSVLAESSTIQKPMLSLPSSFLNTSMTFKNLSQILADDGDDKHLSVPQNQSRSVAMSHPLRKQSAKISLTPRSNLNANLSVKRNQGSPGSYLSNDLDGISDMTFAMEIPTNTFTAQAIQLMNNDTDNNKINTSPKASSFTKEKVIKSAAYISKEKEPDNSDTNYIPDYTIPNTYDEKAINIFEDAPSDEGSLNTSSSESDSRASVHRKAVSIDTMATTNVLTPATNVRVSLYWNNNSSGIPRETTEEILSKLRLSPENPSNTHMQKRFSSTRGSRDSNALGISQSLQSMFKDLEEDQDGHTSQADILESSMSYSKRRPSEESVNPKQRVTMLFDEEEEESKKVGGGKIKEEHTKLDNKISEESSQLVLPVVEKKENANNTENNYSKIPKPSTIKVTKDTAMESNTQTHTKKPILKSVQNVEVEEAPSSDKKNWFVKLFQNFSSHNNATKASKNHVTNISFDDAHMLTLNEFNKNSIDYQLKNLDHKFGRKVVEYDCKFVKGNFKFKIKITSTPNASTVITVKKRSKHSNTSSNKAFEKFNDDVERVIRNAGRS

GST-Cdc12 = molecular target: T4, GST-Cdc12 (S. cerevisiae, UniProt P32468 1-407)
T4 sequence: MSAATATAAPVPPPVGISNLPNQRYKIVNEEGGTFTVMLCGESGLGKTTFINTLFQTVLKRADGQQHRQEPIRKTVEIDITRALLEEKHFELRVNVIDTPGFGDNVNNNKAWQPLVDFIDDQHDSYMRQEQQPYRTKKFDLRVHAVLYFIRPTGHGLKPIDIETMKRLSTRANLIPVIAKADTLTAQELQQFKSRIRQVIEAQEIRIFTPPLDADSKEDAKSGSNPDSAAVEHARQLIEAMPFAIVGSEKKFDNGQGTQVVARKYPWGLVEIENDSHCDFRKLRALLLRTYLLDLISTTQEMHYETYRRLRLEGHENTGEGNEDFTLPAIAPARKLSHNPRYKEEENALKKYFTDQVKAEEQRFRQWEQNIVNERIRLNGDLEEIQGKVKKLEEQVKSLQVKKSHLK

Cdc12-His6 = molecular target: B1
Cdc12(T48N)-His6 = molecular target: B2
GST-Cdc11 [3] = molecular target: T1, GST-Cdc11; remark: listed apart in the source
GST-Cdc3 [4] = molecular target: T2, GST-Cdc3; remark: listed apart in the source
GST-Cla4 = molecular target: T5, GST-Cla4 (S. cerevisiae, UniProt P48562 1-842)
T5 sequence: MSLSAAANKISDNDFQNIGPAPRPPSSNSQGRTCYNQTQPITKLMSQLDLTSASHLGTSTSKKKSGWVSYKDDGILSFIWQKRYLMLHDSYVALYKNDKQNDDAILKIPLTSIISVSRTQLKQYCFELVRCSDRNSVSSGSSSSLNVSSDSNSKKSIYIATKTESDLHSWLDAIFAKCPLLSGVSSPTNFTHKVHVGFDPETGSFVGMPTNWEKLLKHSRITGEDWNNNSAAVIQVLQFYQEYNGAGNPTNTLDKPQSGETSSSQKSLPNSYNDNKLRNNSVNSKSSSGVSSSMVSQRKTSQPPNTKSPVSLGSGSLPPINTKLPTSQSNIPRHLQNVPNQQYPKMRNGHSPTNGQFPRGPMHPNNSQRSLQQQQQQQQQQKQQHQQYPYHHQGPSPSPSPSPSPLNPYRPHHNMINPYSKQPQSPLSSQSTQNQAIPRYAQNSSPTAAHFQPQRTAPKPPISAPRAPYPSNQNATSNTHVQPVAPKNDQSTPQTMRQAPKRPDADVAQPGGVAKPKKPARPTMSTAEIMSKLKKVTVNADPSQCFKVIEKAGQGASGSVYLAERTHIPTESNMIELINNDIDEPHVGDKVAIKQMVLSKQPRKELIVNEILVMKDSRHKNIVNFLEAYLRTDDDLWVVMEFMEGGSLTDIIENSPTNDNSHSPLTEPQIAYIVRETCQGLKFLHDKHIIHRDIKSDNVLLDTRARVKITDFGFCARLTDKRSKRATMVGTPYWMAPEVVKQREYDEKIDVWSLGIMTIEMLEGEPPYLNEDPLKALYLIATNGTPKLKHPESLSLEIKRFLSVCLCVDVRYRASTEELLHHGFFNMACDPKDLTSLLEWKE

Row | Binder | binding result (GST-HSL1(833-1518)) | binding result (GST-Cdc12) | binding result (GST-Cla4) | also measured
1 | B1 | binds | binds |  | binding result (GST-Cdc11 [1]): binds; binding result (GST-Cdc3 [2]): binds
2 | GST-Cdc10 (natural protein) MDPLSSVQPASYVGFDTITNQIEHRLLKKGFQFNIMVVGQSGLGKSTLINTLFASHLIDSATGDDISALPVTKTTEMKISTHTLVEDRVRLNINVIDTPGFGDFIDNSKAWEPIVKYIKEQHSQYLRKELTAQRERFITDTRVHAILYFLQPNGKELSRLDVEALKRLTEIANVIPVIGKSDTLTLDERTEFRELIQNEFEKYNFKIYPYDSEELTDEELELNRSVRSIIPFAVVGSENEIEINGETFRGRKTRWSAINVEDINQCDFVYLREFLIRTHLQDLIETTSYIHYEGFRARQLIALKENANSRSSAHMSSNAIQR |  |  |  | binding result (Cdc12-His6): binds; binding result (Cdc12(T48N)-His6): binds
3 | B2 | binds | binds |  | binding result (GST-Cdc11 [3]): binds; binding result (GST-Cdc3 [4]): binds
4 | His6-Cdc10 (natural protein) MDPLSSVQPASYVGFDTITNQIEHRLLKKGFQFNIMVVGQSGLGKSTLINTLFASHLIDSATGDDISALPVTKTTEMKISTHTLVEDRVRLNINVIDTPGFGDFIDNSKAWEPIVKYIKEQHSQYLRKELTAQRERFITDTRVHAILYFLQPNGKELSRLDVEALKRLTEIANVIPVIGKSDTLTLDERTEFRELIQNEFEKYNFKIYPYDSEELTDEELELNRSVRSIIPFAVVGSENEIEINGETFRGRKTRWSAINVEDINQCDFVYLREFLIRTHLQDLIETTSYIHYEGFRARQLIALKENANSRSSAHMSSNAIQR |  |  | binds | 
5 | His6-Cdc3 (natural protein) MSLKEEQVSIKQDPEQEERQHDQFNDVQIKQESQDHDGVDSQYTNGTQNDDSERFEAAESDVKVEPGLGMGITSSQSEKGQVLPDQPEIKFIRRQINGYVGFANLPKQWHRRSIKNGFSFNLLCVGPDGIGKTTLMKTLFNNDDIEANLVKDYEEELANDQEEEEGQGEGHENQSQEQRHKVKIKSYESVIEENGVKLNLNVIDTEGFGDFLNNDQKSWDPIIKEIDSRFDQYLDAENKINRHSINDKRIHACLYFIEPTGHYLKPLDLKFMQSVYEKCNLIPVIAKSDILTDEEILSFKKTIMNQLIQSNIELFKPPIYSNDDAENSHLSERLFSSLPYAVIGSNDIVENYSGNQVRGRSYPWGVIEVDNDNHSDFNLLKNLLIKQFMEELKERTSKILYENYRSSKLAKLGIKQDNSVFKEFDPISKQQEEKTLHEAKLAKLEIEMKTVFQQKVSEKEKKLQKSETELFARHKEMKEKLTKQLKALEDKKKQLELSINSASPNVNHSPVPTKKKGFLR |  |  | binds | 
